Assay results from paper PMC8557468, “Evolution-Based Protein Engineering for Antifungal Peptide Improvement” (Molecular Biology and Evolution, 2021).
Positions of bridges follow the written chain, without caps; N, C: chain ends. No end group written: not given here.

Experiments:
[1] = system: mouse erythrocytes; assay: Hemolytic assay; type: cell-based; conditions: 50 μM peptide, 37 °C, 15 min, absorbance 570 nm; n = 3
Method: Hemolysis of mouse erythrocytes by peptides was assayed according to the standard method ([Gao et al. 2009]). In brief, the cells were incubated with various concentrations of peptides (6.25, 12.5, 25, or 50 μM) at 37 °C for 15 min. Absorbance was measured at 570 nm with the SpectraMax i3x Multi-Mode microplate reader (Molecular Devices). The percentage of hemolysis was determined as (Apep−Ablank)/(Atot−Ablank)×100. Ablank and Apep were evaluated in the absence or presence of peptides and 100% hemolysis (Atot) was obtained in the presence of 1% Triton X-100. Meucin-18 ([Gao et al. 2009]) was used positive control.

[2] = n = 3
Method: To assess serum stability, peptides were incubated in fresh mouse serum for 0, 12, and 24 h at 37 °C, respectively. Residual activities were measured by inhibition zone assays against C. albicans B16. For thermal stability assay, E15K was incubated at 50 °C for 1–5 days, 80 °C or 100 °C for 5 min. CD analysis and inhibition zone assay were used to evaluate a potential impact of heating on the structure and function of the peptide.

## DVKSGHYKGPCYHDKNCNGVCRDEGYKSGHCSRWGGACWCDT (disulfide 11-31, 17-38, 21-40) [E15K]
[1]
  hemolysis on mouse erythrocytes: no detectable hemolysis
[2]; fresh mouse serum, 37 °C, 0, 12 and 24 h, residual activity by inhibition zone against C. albicans B16, 1.0 nmol
  serum stability (residual antifungal activity): retained its complete antifungal activity
[2]; in water at 50 °C for 1–5 days or 80–100 °C for 5 min, CD spectra and inhibition zone assay
  thermal stability (activity and structure after heating): its activity and structure were not obviously changed
